Experimental data reported in IntAct's records for PubMed 19942853.

B1: Cullin-associated NEDD8-dissociated protein 1 homolog (Saccharomyces cerevisiae), Q92325 (parent)
chain: MSLHISKLIEQYRSTKDNDLKYMLLRQNFKINDIEDELAPLVNELLLPVLVEEQDMEILNLVSFQVLPDLVLSMISDPAAAQLGWVISLICDPLLNQSMIHANRSFVLIETLRNVLQKIENSPHLDYHQPVNSSLEFISKFIVEMKRHMCDVDAAQLSHSLSESNMLIYIESLNLLLKFSFFSDAASPSVMVTLPFDILNDVFTIAQDYSATNTNESIDRITEKLLLTSTQLTHPVDLENLCPKMKYNTLAAVSRIWYKFGPIVDKLFTNRLLPVLFPPQMGEECNVEDVLEIVHNFHPYFSIRRLKDNRPLLSDSTISQLREGLFGMLSILNDSLTRTQNENDHGSDNLIDSDDGFGSDNDPEQQAYLDELVSEGYDENMYDGDTDDEDADDINVEKNDEATKDITETNKILLIFSELHYPQEERFSELLVELQTKIAINTSLIDKILSKETTELPTHNGEIADLNEILNEVKGNKPIRKNVIFCTLAHTLSLQSGSELSVLQLSIEVIDHLLVKNHSNNITRGEQFQLIKLILPHLKTNKSFIDTLKAGNFTQKIDEGVTLRTMILSLLLQLFPLDYSMLGEILPTIARYSVRDKDLGVRDLSFQLLDQILRTYYNYLIGIDWEWYKDDFYQVLQETCIKKDINTNLLLQFPPYLPHD
partner: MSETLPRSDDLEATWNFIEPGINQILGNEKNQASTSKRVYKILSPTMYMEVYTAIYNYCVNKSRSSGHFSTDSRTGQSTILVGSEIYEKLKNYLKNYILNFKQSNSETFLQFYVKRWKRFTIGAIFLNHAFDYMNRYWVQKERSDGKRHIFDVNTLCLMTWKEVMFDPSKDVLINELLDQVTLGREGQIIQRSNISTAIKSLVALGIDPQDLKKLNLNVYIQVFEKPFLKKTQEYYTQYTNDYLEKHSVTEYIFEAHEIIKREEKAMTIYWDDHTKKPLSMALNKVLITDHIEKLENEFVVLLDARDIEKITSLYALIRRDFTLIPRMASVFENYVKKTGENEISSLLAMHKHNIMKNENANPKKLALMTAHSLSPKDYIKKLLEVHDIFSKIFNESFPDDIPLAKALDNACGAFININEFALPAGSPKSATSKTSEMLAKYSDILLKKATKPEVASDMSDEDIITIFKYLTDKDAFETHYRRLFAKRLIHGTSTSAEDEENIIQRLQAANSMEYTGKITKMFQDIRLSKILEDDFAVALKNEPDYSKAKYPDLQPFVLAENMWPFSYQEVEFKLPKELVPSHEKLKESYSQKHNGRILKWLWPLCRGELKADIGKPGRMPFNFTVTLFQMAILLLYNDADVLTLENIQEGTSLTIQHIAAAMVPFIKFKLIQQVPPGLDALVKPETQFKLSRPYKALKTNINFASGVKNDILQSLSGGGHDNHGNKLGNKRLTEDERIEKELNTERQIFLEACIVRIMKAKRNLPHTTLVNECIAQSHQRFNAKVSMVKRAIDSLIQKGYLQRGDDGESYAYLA

Variants of: B1
Conditions: with cdc53_yeast CDC53, Q12018

Variant | effect of a mutation on the interaction
Y22A | disrupting interaction
M23A | disrupting interaction
D19A | disrupting interaction
D17A | disrupting interaction

Variants of: B1
Conditions: with cdc53_yeast CDC53, Q12018
Remark: another data set of the same source

Variant | effect of a mutation on the interaction
G551A | decreasing interaction
N552A | decreasing interaction
